Test results from the nanobody polyreactivity screen of Harvey et al. (2022).

Assay: yeast display, Sf9 membrane polyspecificity reagent, FACS + sequencing; frameworks hold sequencing errors
In short: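 A nanobody's polyreactivity label depends on the gate it was sorted from. Yeast display cells were stained with 10% biotinylated, detergent-solubilized Sf9 membrane reagent for 1 hour at 4 °C, enriched on streptavidin microbeads and sorted by FACS. The low and high (top ~1%) gates were set on anti-HA fluorescence for expression and streptavidin fluorescence for reagent binding.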
In the case of “QVQLVESGGGLDQAGGSLRLSCAASGFTFRWYAMGWYRQAPGKERELVAAISRGGNTNYADSVKGRFTISRDNAKNTVYLQMNSLKPEDSAVYYCARNTGPYLGYYHRYYWGHGTQVTVSS”, the “polyreactivity (PSR sort gate)” value is reported as “high polyreactivity”.
In the case of “QVQLVESGGGLDQAGGSLRLSCAASGFTFVGNAMGWYRQAPGKERELVATITSGGNTKYADSVKGRFTISRDNAKNTVYLQMNSLKPEDTAVYYCAAAKYNYRRFNYWGQGTQVTVSS”, the “polyreactivity (PSR sort gate)” value is reported as “low polyreactivity”.
For “QVQLVESGGGLDQAGGSLRLSCAASGFTFYRNAMGWYRQAPGKERELVAAITSGGSTYYADSVKGRFTISRDNAKNTVYLQMNSLKPEDTAVYYCAAYVWSGWGHWFYYWGQGTQVTVSS”, the “polyreactivity (PSR sort gate)” value was “high polyreactivity”.
With “QVQLVESGGGLDQAGGSLRLSCAASGGIFQKYAMGWYRQAPGQERELVAAISYSTTRTYYADSVKGRFTISRDNAKKTVYLQMNSLKPEDTAVYYCAARGYFWSSYKYDYWGQGTQVTVSS” the “polyreactivity (PSR sort gate)” value was “high polyreactivity”.
In the case of “QVQLVESGGGLDQAGGSLRLSCAASGGTFAVYAMGWYRQAPGKERELVAAIDSGGRTNYADSVKGRFTISRANAKNTVYLQMNSLKPEDTAVYYCAADGGGQYVRYDYWGQGTQVTVSS”, the “polyreactivity (PSR sort gate)” value is reported as “high polyreactivity”.
For “QVQLVESGGGLDQAGGSLRLSCAASGGTFDTYAMGWYRQAPGKERELVAGIDWSGGSTYYADSVKGRFTISRDNAKNTVYLQMNSLKPEDTAVYYCAADYYYPSQMDYWGQGTQVTVSS”, the “polyreactivity (PSR sort gate)” value was “low polyreactivity”.
In the case of “QVQLVESGGGLDQAGGSLRLSCAASGIIFSSYAMGWYRQAPGKERELVAAISYSGGSTYYADSVKGRFTISRDNAKNTVYLQMNSLKPEDTAVYYCAAQGYSPGGYDYWGQGTQVTVSS”, the “polyreactivity (PSR sort gate)” value is reported as “low polyreactivity”.
In the case of “QVQLVESGGGLDQAGGSLRLSCAASGIIFVENAMGWYRQAPGKERELVASGDSTYADSVKGRFTISRDNAKNTVYLKMNSRKPEDTAVYYCAAEVYVYHPFVHYDYWGQGTQVTVSS”, the “polyreactivity (PSR sort gate)” value is reported as “low polyreactivity”.
In the case of “QVQLVESGGGLDQAGGSLRLSCAASGITFKPYGMGWYRQAPGKERELVADITSGGITYYADSVKGRFTISRDNAKNTVYLQMNSLKPEDTAVYYCATGDLFVFYWGYVVRLYDYWGQGTQVTVSS”, the “polyreactivity (PSR sort gate)” value is reported as “low polyreactivity”.
With “QVQLVESGGGLDQAGGSLRLSCAASGITFQSNAMGWYRQAPGKERELVAGISGSGARTYYADSVKGRFTISRDNAKNTVYLQMNSLKPEDTAVYYCAKKSSYRYGYWGQGTQVTVSS” the “polyreactivity (PSR sort gate)” value was “high polyreactivity”.
For “QVQLVESGGGLDQAGGSLRLSCAASGITFRYYAMGWYRQAPGKERELVATISRGVRTNYADSVKGRFTISRDNAKNTVYLQMNSLKPEDTAVYYCNADYASARRYDYWGQGTQVTVSS”, the “polyreactivity (PSR sort gate)” value was “high polyreactivity”.
With “QVQLVESGGGLDQAGGSLRLSCAASGLTFGGNAMGWYRQAPGKERELVAAISWSDDTTDYADSVKGRFTISRDNAKNTVYLQMNSLKPEDTAVYYCAARLPFEHVDYWGQGTQVTVSS” the “polyreactivity (PSR sort gate)” value was “low polyreactivity”.
In the case of “QVQLVESGGGLDQAGGSLRLSCAASGLTFYSNAMGWYRQAPGKERELVARISTGGSTYADSVKGRFTISRDNAKNTVYLQMNSLKPEDTAVNYCAKLPPRGIDDEYWGQGTQVTVSS”, the “polyreactivity (PSR sort gate)” value is reported as “low polyreactivity”.
In the case of “QVQLVESGGGLDQAGGSLRLSCAASGLTLAVNAMGCYRQAPGKERELVAAISRRGGSTYYADSVKGRFTISRDNSKNPVYLQMNSLKPEDTAVYYCAAKYNYSEMDSWGQGTQVTVSS”, the “polyreactivity (PSR sort gate)” value is reported as “high polyreactivity”.
In the case of “QVQLVESGGGLDQAGGSLRLSCAASGNIFRIYAMGWYRQAPGKERELVATITKRGGSTYYADSVKGRFTISRDNAKNTVYLQMNSLKPEDTAVNYCNAVTKLWYDYDYWGQGTQGTVSS”, the “polyreactivity (PSR sort gate)” value is reported as “high polyreactivity”.
With “QVQLVESGGGLDQAGGSLRLSCAASGNIFYTNAMGWYRQEPGKAREFVAAISGSGGRTYYADSVKGRFTMSRDNAKNTFYLQMNSLKPEDTEVYYCNAVRRDYYDRNYGYWGQGTQVSVSS” the “polyreactivity (PSR sort gate)” value was “low polyreactivity”.
For “QVQLVESGGGLDQAGGSLRLSCAASGRIFDKYALGCYRHAPGKERELVAAISSSGGSTYYADSVKGRFTISRDNAKNTVYLQMNSLKTEDTAVYYCAKLVVVPFYYWGQGTQVTVSS”, the “polyreactivity (PSR sort gate)” value was “high polyreactivity”.
With “QVQLVESGGGLDQAGGSLRLSCAASGRIFGRYAMGWYRQAPGKERELVASISRGGSTNYADSVKGRFTISRDNAKNTVYLQMNSLKPEDTAVYYCAKSGGVGGEDRVGSWGQGTQVTVSS” the “polyreactivity (PSR sort gate)” value was “low polyreactivity”.
In the case of “QVQLVESGGGLDQAGGSLRLSCAASGRIFRYYAMGWYRQAPGKERELVAAISTSGDTTYYADSVKGRFTISRDNAKNTVYLQMNSLKPEDTAVYYCAADTYYYLVKYGSYDYWGQGTQVTVSS”, the “polyreactivity (PSR sort gate)” value is reported as “high polyreactivity”.
In the case of “QVQLVESGGGLDQAGGSLRLSCAASGRIFYQNAMGWYRQAPGKERELVAAITSSGVSTYYADSVKGRFTISRDYAKNTVYLQMNSLKPEDTAVYYCAAYRVGYGGYSYYYWGQGTQVTVSS”, the “polyreactivity (PSR sort gate)” value is reported as “high polyreactivity”.
With “QVQLVESGGGLDQAGGSLRLSCAASGRISYRYAMGSYRQAPGKEMELVASISSGVSTYYADSVKGRFTISRDNAKNTVYLQMHSLKPEDSAVYFCAAAYWFHNDYWGLGTQVTVSS” the “polyreactivity (PSR sort gate)” value was “high polyreactivity”.
For “QVQLVESGGGLDQAGGSLRLSCAASGRIYYNYAMGWYRQSPVKERELVAAISGSGGSTYYADSVKWRLTISRDNAKNTVYLLMNSLKPEDTAVYYCSTSGPQYYSRNFDYWGQGTQVTVSS”, the “polyreactivity (PSR sort gate)” value was “low polyreactivity”.
For “QVQLVESGGGLDQAGGSLRLSCAASGRIYYPYARGLYRQAPGKESELVAAISSGVSTNYADSVKGRFTISRDNAKTTVYLQMNSLKPEDTAVYYCARTYFRFASSYYPAVSHGYWGQGTQVTVSS”, the “polyreactivity (PSR sort gate)” value was “high polyreactivity”.
In the case of “QVQLVESGGGLDQAGGSLRLSCAASGRTFEQYAMGWYRQAPGKVRELVAAISGSGGSTFYADSVKGRFTISRDNAKNTVYLQMNSLKPEDTAVYYCADKYDGSYVGLYWYSMNYCGQGTQVTVSS”, the “polyreactivity (PSR sort gate)” value is reported as “low polyreactivity”.
In the case of “QVQLVESGGGLDQAGGSLRLSCAASGRTFGGYAMGWYRQAPGKERELVARISRSGGSTYYADSVKGRFTISRDNAKNTVYFQMNSLKPEDTAVYYCNTGLRTAYGWPQDDYWGQGTQVTVSS”, the “polyreactivity (PSR sort gate)” value is reported as “low polyreactivity”.
With “QVQLVESGGGLDQAGGSLRLSCAASGRTFPYYAMGWYRQAPGKERELVAAISSSGGRTYYADSVKGRFTISRDNAKNTVYLQMNSLKPEDTAVYYCNVDAWYPYQGFLVGYYYWGQGTQVTVSS” the “polyreactivity (PSR sort gate)” value was “low polyreactivity”.
In the case of “QVQLVESGGGLDQAGGSLRLSCAASGRTFYNNAMGWYRPAPGKERELVAAITRGGSTYYADSVKGRFTISRDNAKNTVYLPMNSLKPEDTAVYYCAADGFTRWGRYDYWGQGTQVTVSS”, the “polyreactivity (PSR sort gate)” value is reported as “high polyreactivity”.
With “QVQLVESGGGLDQAGGSLRLSCAASGRTFYYYAMAWYRQAPRTERELVAAIRRSGSSTYYADSVKGRFTISRDNAKNTVYLQMNSLKPEDTAFYYCAAAVYQRARYYWGQGTQVTVSS” the “polyreactivity (PSR sort gate)” value was “high polyreactivity”.
In the case of “QVQLVESGGGLDQAGGSLRLSCAASGRTLYKYAMGWYRQAPGKERELVAAIRWIGGSTYYADSVKGRFTISRDNAKNTVYLQMNSLKPEDTAVYYCAATYYYSRYGRYDYWGQGTQVTVSS”, the “polyreactivity (PSR sort gate)” value is reported as “high polyreactivity”.
For “QVQLVESGGGLDQAGGSLRLSCAASGSIFDPYAMGWYRPAPGKEREFVAVISKGGTNTYYADSVKGRFTISRDNAKNTVYLQMNSLKPEDTAGYYCAARVDTYRAKYYYWRQGTQVTVSS”, the “polyreactivity (PSR sort gate)” value was “high polyreactivity”.
For “QVQLVESGGGLDQAGGSLRLSCAASGSIFEGNGMGWYRQAPGKERELVAAITFRSGSTYYADSVKGRFTISRDNAKNTVYLQMNSLKPEDTAVYYCAADEYYQVSAYDYWGQGTQVTVSS”, the “polyreactivity (PSR sort gate)” value was “low polyreactivity”.
In the case of “QVQLVESGGGLDQAGGSLRLSCAASGSIFEPYDMGWYRQAPGKERELVASISRGGSTYYADSVKGRFTISRDNAKNTVYLQMNSLKPEDTAVYYCAADPYYYSSGYYYWGQGTQVTVSS”, the “polyreactivity (PSR sort gate)” value is reported as “low polyreactivity”.
With “QVQLVESGGGLDQAGGSLRLSCAASGSIFGYAMGWYRQAPGKERELLAAITDSGGRTYYADSVKGRFTISRDNAKNTVYLQMNSLKPEDTAVYYCAKTWYPWSRYGYYRRYDSWGQGTQVNVSS” the “polyreactivity (PSR sort gate)” value was “low polyreactivity”.
With “QVQLVESGGGLDQAGGSLRLSCAASGSIFPDYAMGWYIPAPGKERELVAAITWSGGNTYYADSVKGRFTISRDNAKNTVYLQMNSLKPEDTAVYYCAADISLHWYYYRRYNYWGQGTQVTVSS” the “polyreactivity (PSR sort gate)” value was “low polyreactivity”.
In the case of “QVQLVESGGGLDQAGGSLRLSCAASGSIFQDYAMGWYRQAPGKERELVAAITKSGVSTYYADSVKGRFTISRDNAKNTVYLQMNSLKPEDTAVYYCAAPRYVRYHRGYGFDYWGQGTQVTVSS”, the “polyreactivity (PSR sort gate)” value is reported as “low polyreactivity”.
For “QVQLVESGGGLDQAGGSLRLSCAASGSIFYRNAMGWYRQAPGKEMELVAAISGRGGSTNYADSVKGRFTISRDNAKNTVYLPMNSLKPEDTAVYYCNRFGVSNILVRGGYWGLGTQVTVSS”, the “polyreactivity (PSR sort gate)” value was “high polyreactivity”.
With “QVQLVESGGGLDQAGGSLRLSCAASGSTFDWYTMGWNRQAPGKERELVAAISSGGRTYYADSVKGRFTISRDNAKNTVYLQMNSLKPEDTAVYYCAVAWRVGITKYGYWGQGTQVTVSS” the “polyreactivity (PSR sort gate)” value was “high polyreactivity”.
For “QVQLVESGGGLDQAGGSLRLSCAASGSTFGYYAMGWYREAPGKERELVASITSDGSTNYADSVKGRFTISRDNAKNTVYLQMNSLKPEDTAVYYCAAYVWRYWHEYDYWGQGTLVTVSS”, the “polyreactivity (PSR sort gate)” value was “low polyreactivity”.
For “QVQLVESGGGLDQAGGSLRLSCAASGSTFNSYAMGWYRQAPGKERELVAAITSSVGSTYYADSVKGRFTISRDNAKNTVYLQMNSLKPEDTAVYYCAADYFSYWYFSGYDYWGQGTQVTVSS”, the “polyreactivity (PSR sort gate)” value was “low polyreactivity”.
In the case of “QVQLVESGGGLDQAGGSLRLSCAASGSTFNSYVMGCYRQAPGKEREFVAAISWSGVRTYYADSVKGRFTISRDNAKNTVFLQMNSLIPEDTAVYYCAVRSGRRNYYRPAFGYWGQGTQVTVSS”, the “polyreactivity (PSR sort gate)” value is reported as “high polyreactivity”.
In the case of “QVQLVESGGGLDQAGGSLRLSCAASGSTFNWYTMGWYRQAPGKERELVAAISLNGGRTYYADSVKGRFTISRDNAKNTVYFQMNSLKQEDTAVYYCAAQISFYFAQYNLARFRGYYWGQGTQVTVSS”, the “polyreactivity (PSR sort gate)” value is reported as “high polyreactivity”.
In the case of “QVQLVESGGGLDQAGGSLRLSCAASGSTFRSNAMGWYRQAPGKERELVAGITSGTSTNYADSVKGRFTISRDNAKNTVYLQMNSLKPEDTAVYYCNTDRIWYGPEYDYWGQGTQVTVSS”, the “polyreactivity (PSR sort gate)” value is reported as “low polyreactivity”.
With “QVQLVESGGGLDQAGGSLRLSCAASGSTFSRNAMGWYRQAPGKERELVAGISYIGGRTYYADSVKGRFTISRDNAKNTVYLQMNSLKPEDTAVYYCNVVPKSRDWQSYGSWGQGTQVTVSS” the “polyreactivity (PSR sort gate)” value was “high polyreactivity”.
